Reference: the supplement of paper PMC9170038

System: MS2 coat protein
Test: apparent KD of MS2 coat protein; designed switch direction (-1 OFF switch, 1 ON switch): -1; higher = weaker reporter binding
Procedure, shortened: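 An oligonucleotide input, 200 uM small-molecule ligand, or no input was present during titration of SNAP-549-labelled MS2 coat protein, which was doubled from 0.7 or 1.5 nM to 3 µM. Designed RNA switches had been transcribed on Illumina chips by stalled E. coli RNA polymerase. Apparent KD per design is the median over clusters of curves fitted to normalised cluster fluorescence.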

[1] = input ligand: microRNA oligo, concentration not stated
[2] = Eterna round: R95, input ligand: microRNA oligo, concentration not stated
[3] = Eterna round: R95, input ligand: FMN 200 uM
[4] = Eterna round: R95, input ligand: none

Row | Sequence | apparent KD of MS2 coat protein (input ligand: FMN 200 uM) [nM] | apparent KD of MS2 coat protein (input ligand: none) [nM] | apparent KD of MS2 coat protein [1] [nM] | further results
1 | UUGUUACAUGAGGAUCACCCAUGUGAGGAUAUGAGUCAGUCACGGUGACGUGGCUGACUCAGAAGGCACAAAGG [Mat - Exclusion 1 - JL Mod - D40] (Eterna round: R97, puzzle: Exclusion 1) | 310 | 120 | – | –
2 | UUGUUACGAUUAGGAUAUUAUAGAUUGAAUAGUAUGAUUUACAUGAGGAUCACCCAUGUUACAUUUAAGAAGGAAUCGAAUUAU [JR_ExcNG2_Sub089] (Eterna round: R96, puzzle: Exclusion NG 2) | – | – | 16.1 | –
3 | UUGUUAUAUGUAGGAUAUGCAUGUUAUUAUUAUGCAGAAGGACAUGAGGAUCACCCAUGUGUAUUAUUAUUAUAUAUUAUAUAU [Title] (Eterna round: R96, puzzle: Exclusion NG 1) | 21.2 | 20.1 | 14.1 | –
4 | UUGUUAUGUGUAGGAUAUGCAUAUUAUUAUUAUGCAGAAGGACAUGAGGAUCACCCAUGUGUAUUAUUAUUAUAUAUUAUAUAU [Title] (Eterna round: R96, puzzle: Exclusion NG 1) | – | – | 17.2 | –
5 | UUGUUGUAUGUAGGAUAUGCAUAUUAUUAUUAUGCAGAAGGACAUGAGGAUCACCCAUGUAUGUUAUUAUUAUAUGUUAUAUGU [Title] (Eterna round: R96, puzzle: Exclusion NG 1) | – | – | 25.6 | –
6 | UUGUUGUAUGUAGGAUAUGCAUAUUAUUAUUGUGCAGAAGGACAUGAGGAUCACCCAUGUAUAUUAUUAUUAUAUAUUAUAUAU [Title] (Eterna round: R96, puzzle: Exclusion NG 1) | – | – | 27.2 | –
7 | UUGUUGUAUGUAGGAUAUGCGUAUUAUUAUUAUGCAGAAGGACAUGAGGAUCACCCAUGUAUAUUAUUAUUAUAUAUUAUAUAU [Title] (Eterna round: R96, puzzle: Exclusion NG 1) | – | – | 22 | –
8 | UUGUUUGUAGUGAGGAUAUCGUUGAGGAAGAGGAUCGAGAAGGCACAUGAGGAUCACCCAUGUUAGAUGUGGUU [JR_BMOE4_Sub082] (Eterna round: R96, puzzle: Brourd's mod of Exclusion 4) | 261 | 161 | 114 | –
9 | UUGUUUGUAGUGAGGAUAUCGUUGAGGAAGAGGAUCGAGAAGGCACAUGAGGAUCACCCAUGUUAGAUGUGGUU [JR_BMOE4_Sub082] (puzzle: Brourd's mod of Exclusion 4) | – | – | – | apparent KD of MS2 coat protein [2]: 99.1 nM
10 | UUUAAUUUUUUUUUUUUACAAGCUUUUUGCUCGUCUUAUACAUGAGGAUCACCCAUGUGAGUGGGAGGUAAAUUAUC [JMF 77] (puzzle: Sensor v3, turn-off variant 2) | – | – | – | apparent KD of MS2 coat protein [3]: 57.7 nM; apparent KD of MS2 coat protein [2]: 276 nM; apparent KD of MS2 coat protein [4]: 70 nM
11 | UUUAAUUUUUUUUUUUUACAAGCUUUUUGCUCGUCUUAUACAUGAGGAUCACCCAUGUGGAUGGGAGGUAAAUUAUC [JMF 74] (puzzle: Sensor v3, turn-off variant 2) | – | – | – | apparent KD of MS2 coat protein [3]: 25.4 nM; apparent KD of MS2 coat protein [2]: 153 nM; apparent KD of MS2 coat protein [4]: 25.3 nM
12 | UUUAAUUUUUUUUUUUUACAAGCUUUUUGCUCGUCUUAUACAUGAGGAUCACCCAUGUGGGUGAGAGAUAAAUUAUC [JMF 14] (puzzle: Sensor v3, turn-off variant 2) | – | – | – | apparent KD of MS2 coat protein [3]: 53.2 nM; apparent KD of MS2 coat protein [2]: 17 nM; apparent KD of MS2 coat protein [4]: 64.2 nM
13 | UUUACAAGCUAAAGAUCCCACAUGAGGAUCACCCAUGUUCCUGGCCGUGAGGCUAGGUAAACUUUUGCUCGUCUUAU [JL TOV1 3.67] (Eterna round: R97, puzzle: Sensor, turn-off variant 1) | 252 | 322 | – | –
14 | UUUACAAGCUAUUGAUCCCACAUGAGGAUCACCCAUGUUCCUGGCCGUGAGGCUAGGUAAACAAUAGCUCGUCUUAU [Sensor-V1 #41] (Eterna round: R97, puzzle: Sensor, turn-off variant 1) | 98.4 | 95.1 | – | –
15 | UUUAGUUCAGGAUAUGUAGAUUUUAACAUGAGGAUCACCCAUGUCGAUCCUGAAUUAACUACAGAAGGGAACAUUU [Mod of Brourd 4 - Jieux - Exclusion 5] (Eterna round: R97, puzzle: Exclusion 5) | 64 | 18.8 | – | –
16 | UUUAGUUUAGGAUAUGUAGAUUUUAACAUGAGGAUCACCCAUGUAGAUCCUGAAUUAACUACAGAAGGGAGCAUUU [Mod of Brourd 15 - Jieux - Exclusion 5] (Eterna round: R97, puzzle: Exclusion 5) | 70.5 | 68.2 | – | –

Row | Sequence | apparent KD of MS2 coat protein (input ligand: FMN 200 uM) [nM] | apparent KD of MS2 coat protein (input ligand: none) [nM] | apparent KD of MS2 coat protein [1] [nM] | further results
17 | UUUAUAUAUGAAGGAUAUACUUAACAUGAGGAUCACCCAUGUGGUGUUGUGAGUGAGUGAGUUUAGUAGAAGGUCAAUUAUUUU [JMF's solution 27] (Eterna round: R96, puzzle: Exclusion NG 2) | 594 | 310 | 237 | –
18 | UUUAUGUCAGGAUAUGAGUCGUAGAACAAUAGUACUACGUCUCAGAAGGGACAUGAGGAUCACCCAUGUGCCUC [Fiskers Ex 4 Super Stable 44 mod 26] (puzzle: Exclusion 4) | – | – | – | apparent KD of MS2 coat protein [2]: 35.7 nM
19 | UUUAUUAAUUAAUAUAAUAAGAUCACAUGAGGAUCACCCAUGUAGGAUAUCAGCUCGAUUAGAGCUGAGAAGGACAUAAUUAUA [ExNG3/1-B1] (Eterna round: R96, puzzle: Exclusion NG 3) | – | – | 29.2 | –
20 | UUUAUUAAUUAAUAUAAUAAGAUCACAUGAGGAUCACCCAUGUAGGAUAUCAGCUCGUGUAGAGCUGAGAAGGACAUAAUUAUA [ExNG3/1-B3] (Eterna round: R96, puzzle: Exclusion NG 3) | 108 | 34.3 | 27 | –
21 | UUUCCCUGGCAAGGAUAUCCUGUGCGGUUCCGGCUCGUGUCUGUUACAUGAGGAUCACCCAUGUGGGAGAAGGUGCCUGUGGCU [Design 91] (Eterna round: R96, puzzle: Exclusion NG 2) | – | – | 47.4 | –
22 | UUUCGGCAUGUAGGAUAUGGAUCCGAUUAGGAUUUAGAAGGACAUGAGGAUCACCCAUGUGCAUUUAAUUAGUCAUUACCGUUU [EXclNG1-LROPPY07] (Eterna round: R96, puzzle: Exclusion NG 1) | 79.9 | 67.1 | 42.8 | –
23 | UUUGAAUAGGUAGGAUAUACUUUCAAUUUUCUUUUCCUUACAUGAGGAUCACCCAUGUUUACAUUGUAGAAGGACCUCAUUGAU [JR_ExcNG2_Sub048] (Eterna round: R96, puzzle: Exclusion NG 2) | – | – | 193 | –
24 | UUUGCAAGCUUAAGAUCCCACAUGAGGAUCACCCAUGUUGCUGCCGUGAGGUAGCAUUUAACUUAUGCUCGUCUUAU [JL TOV1 3.50] (Eterna round: R97, puzzle: Sensor, turn-off variant 1) | 140 | 176 | – | –
25 | UUUGUCUGUGUGAGGAUAUACUUUGUUUGGUCGUUGUAGAAGGCACAUGAGGAUCACCCAUGUAUUUUGUUGUG [JR_BME4_Sub015] (puzzle: Brourd's mod of Exclusion 4) | – | – | – | apparent KD of MS2 coat protein [2]: 26.9 nM
26 | UUUGUCUGUGUGAGGAUAUACUUUUUUUGGUUUUUGUAGAAGGCACAUGAGGAUCACCCAUGUAUUUUGUUGUG [JR_BME4_Sub016] (puzzle: Brourd's mod of Exclusion 4) | – | – | – | apparent KD of MS2 coat protein [2]: 31.1 nM
27 | UUUGUUGUUGUGAGGAUAUCGUUGUUAUUUUGAAACGAGAAGGCACAUGAGGAUCACCCAUGUUUGUUGAUGGU [JR_BMOE4_Sub060] (puzzle: Brourd's mod of Exclusion 4) | – | – | – | apparent KD of MS2 coat protein [2]: 41.5 nM
28 | UUUGUUUAUGUAGGAUAUGCCUGGCGUGCCUUCGCAGAAGGACAUGAGGAUCACCCAUGUAUUGCGGUCUGCGUUCAGAUCGCU [salish99_ExNG1_r4_030] (Eterna round: R96, puzzle: Exclusion NG 1) | 46.8 | 41.8 | 29.1 | –
29 | UUUGUUUAUGUGAGGAUAUACUGUUUGUUUUGUUUGUAGAAGGUACAUGAGGAUCACCCAUGUUUUGUAUUUAU [JR_BME4_Sub034] (puzzle: Brourd's mod of Exclusion 4) | – | – | – | apparent KD of MS2 coat protein [2]: 18.4 nM
30 | UUUGUUUUGCAAGGAUAUGUUUAAUUUUAUUUUCCUUACACAUGAGGAUCACCCAUGUUAUUCUUACAGAAGGUGCGUAAUUUG [Excl-NG2-LRO05] (Eterna round: R96, puzzle: Exclusion NG 2) | – | – | 171 | –
31 | UUUUAAAAGCUGAGAUCCUACAUGAGGAUCACCCAUGUGGUCCGGAAAAUUUUGUCACCGGAUUUUGCUCGUCUUGU [salish99_S_TOV1_R5_103] (Eterna round: R97, puzzle: Sensor, turn-off variant 1) | 102 | 114 | – | –
32 | UUUUAACAAGCGAGAUCCUACAUGAGGAUCACCCAUGUAGACCAUGGUUUCCAUGGUCUUUUUGCUCGUCUUGUGUG [jl TITIN mod 6] (Eterna round: R97, puzzle: Sensor, turn-off variant 1) | 22.5 | 23.3 | – | –
